The target of assay [1] is T1, human 4-1BB (human, UniProt Q07011 24-186, limits assumed).
T1 construct: Soluble antigen in Octet; construct not described
As to the kind of experiment: BLI (Octet), binder on AHC sensor; antigen conditions not stated.

In assay [2] the target is T2, human PD-L1 (human, UniProt Q9NZQ7 19-238).
T2 construct: Soluble antigen in Octet; bought; also called human PD-L1 (Acro PD1-H5229)
The assay is described as above.

In assay [3] the target is T3, human CD3 (human, UniProt P07766 23-126; P04234 22-105).
T3 construct: also called His-tagged human CD3; human CD3 (Acro CDD-H52W1)
Put plainly: BLI (Octet), binder on AHC sensor, His-tagged human CD3 (series from 200 nM or single 100 nM), 1:1 fit.

Assay [4] deals with T4, CD19 (UniProt P15391 20-291, limits assumed).
T4 sequence (looked up): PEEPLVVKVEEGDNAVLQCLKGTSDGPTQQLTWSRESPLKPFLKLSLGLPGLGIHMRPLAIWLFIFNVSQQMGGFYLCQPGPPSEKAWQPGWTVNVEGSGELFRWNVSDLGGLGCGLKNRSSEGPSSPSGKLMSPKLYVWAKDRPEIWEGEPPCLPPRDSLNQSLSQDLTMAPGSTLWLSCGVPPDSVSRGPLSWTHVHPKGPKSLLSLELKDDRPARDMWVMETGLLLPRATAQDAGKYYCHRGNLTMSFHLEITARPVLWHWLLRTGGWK
As to the kind of experiment: BLI (Octet), binder on AHC sensor; antigen conditions not stated. On the technique in general: BLI is a label-free optical method that tracks binding on a fibre tip over time.

B1: SI-68P15 (other)
chain 1: EIVMTQSPSTLSASVGDRVIITCQASESISSWLAWYQQKPGKAPKLLIYEASKLASGVPSRFSGSGSGAEFTLTISSLQPDDFATYYCQGYFYFISRTYVNSFGQGTKLTVLGGGGSGGGGSGGGGSGGGGSEVQLVESGGGLVQPGGSLRLSCAASGFTISTNAMSWVRQAPGKGLEWVGVITGRDITYYASWAKGRFTISRDTSKNTVYLQMNSLRAEDTAVYYCARDGGSSAITSNNIWGQGTLVTVSSGGGGSGGGGSQVQLQQSGPGLVKPSETLSITCTVSGFSLTNYGVHWIRQAPGKGLEWLGVIWSGGNTDYNTPFTSRFTITKDNSKNQVYFKLRSVRADDTAIYYCARALTYYDYEFAYWGQGTLVTVSSASTKGPSVFPLAPSSKSTSGGTAALGCLVKDYFPEPVTVSWNSGALTSGVHTFPAVLQSSGLYSLSSVVTVPSSSLGTQTYICNVNHKPSNTKVDKRVEPKSCDKTHTCPPCPAPEAAGGPSVFLFPPKPKDTLMISRTPEVTCVVVDVSHEDPEVKFNWYVDGVEVHNAKTKPREEQYNSTYRVVSVLTVLHQDWLNGKEYKCAVSNKALPAPIEKTISKAKGQPREPQVYTLPPSRDELTKNQVSLSCAVKGFYPSDIAVEWESNGQPENNYKTTPPVLDSDGSFFLVSKLTVDKSRWQQGNVFSCSVMHEALHNHYTQKSLSLSPGGGGGSGGGGSDVVMTQSPSSVSASVGDRVTITCQASQNIRTYLSWYQQKPGKAPKLLIYAAANLASGVPSRFSGSGSGTDFTLTISDLEPGDAATYYCQSTYLGTDYVGGAFGGGTKLTVLGGGGSGGGGSGGGGSGGGGSEVQLVESGGGLVQPGGSLRLSCTASGFTISSYHMQWVRQAPGKGLEYIGTISSGGNVYYASSARGRFTISRPSSKNTVDLQMNSLRAEDTAVYYCARDSGYSDPMWGQGTLVTVSS
chain 2: ENVLTQSPASLSASPGERVTITCSASSSVSYMHWYQQKPGQAPKLWIYDTSKLASGVPSRFSGSGSGNDHTLTISSMEPEDFATYYCFQGSVYPFTFGQGTKVTVLGGGGSGGGGSGGGGSGGGGSQVTLKESGPGLVQPGQTLSLTCAFSGFSLSTSGMGVGWIRQPPGKGLEWLAHIWWDDDKRYNPALKSRLTISKDTSKNQVYLQMNSLDAEDTAVYYCARMELWSYYFDYWGQGTLVTVSSGGGGSGGGGSEIVLTQSPSTLSVSPGERATFSCRASQSIGTNIHWYQQKPGKPPRLLIKYASESISGIPDRFSGSGSGTEFTLTISSVQSEDFAVYYCQQNNNWPTTFGPGTKLTVLRTVAAPSVFIFPPSDEQLKSGTASVVCLLNNFYPREAKVQWKVDNALQSGNSQESVTEQDSKDSTYSLSSTLTLSKADYEKHKVYACEVTHQGLSSPVTKSFNRGECGGDKTHTCPPCPAPEAAGGPSVFLFPPKPKDTLMISRTPEVTCVVVDVSHEDPEVKFNWYVDGVEVHNAKTKPREEQYNSTYRVVSVLTVLHQDWLNGKEYKCAVSNKALPAPIEKTISKAKGQPREPQVYTLPPSRDELTKNQVSLWCLVKGFYPSDIAVEWESNGQPENNYKTTPPVLDSDGSFFLYSKLTVDKSRWQQGNVFSCSVMHEALHNRFTQKSLSLSPGGGGGSGGGGSDIQMTQSPSTLSASVGDRVTITCQASQSISSHLNWYQQKPGKAPKLLIYKASTLASGVPSRFSGSGSGTEFTLTISSLQPDDFATYYCQQGYSWGNVDNVFGGGTKVTVLGGGGSGGGGSGGGGSGGGGSEVQLLESGGGLVQPGGSLSLSCAASGFSFSSGYDMCWVRQAPGKGLEWIACIAAGSAGITYDANWAKGRFTISRDNSKNTLYLQMNSLRAEDTAVYYCARSAFSFDYAMDLWGQGTLVTVSS
notes: penta-miniGNC; D1 αCD3** (humanized framework 1), D2 αCD19, D3 αEGFR (Fab), D4 α4-1BB, D5 αPD-L1
For B1, the Kd (commonly the free concentration of one partner at which half of the binding sites on the other are occupied at equilibrium, for simple one-to-one binding) in assay [1] was found to be 17.1 nM; in assay [2], 0.4 nM; in assay [3], 22.4 nM.

B2: SI-68P16 (other)
chain 1: DPVLTQSPSSLSASVGDRVTISCQSSQSVAKNNNLAWFQQKPGQAPKLLIYSASTLAAGVPSRFSGSGSGTDFTLTISSVQPEDFATYYCSARDSGNIQSFGGGTKVEIKGGGGSGGGGSGGGGSGGGGSQQLVESGGGLVKPGGSLRLSCAASGIDLSSNAIGWVRQAPGKGLEWVGVIFGSGNTYYASWAKGRFTISRSKNTVYLQMNSLRAEDTAVYYCARGGYSSDIWGQGTLVTVSSGGGGSGGGGSQVQLQQSGPGLVKPSETLSITCTVSGFSLTNYGVHWIRQAPGKGLEWLGVIWSGGNTDYNTPFTSRFTITKDNSKNQVYFKLRSVRADDTAIYYCARALTYYDYEFAYWGQGTLVTVSSASTKGPSVFPLAPSSKSTSGGTAALGCLVKDYFPEPVTVSWNSGALTSGVHTFPAVLQSSGLYSLSSVVTVPSSSLGTQTYICNVNHKPSNTKVDKRVEPKSCDKTHTCPPCPAPEAAGGPSVFLFPPKPKDTLMISRTPEVTCVVVDVSHEDPEVKFNWYVDGVEVHNAKTKPREEQYNSTYRVVSVLTVLHQDWLNGKEYKCAVSNKALPAPIEKTISKAKGQPREPQVYTLPPSRDELTKNQVSLSCAVKGFYPSDIAVEWESNGQPENNYKTTPPVLDSDGSFFLVSKLTVDKSRWQQGNVFSCSVMHEALHNHYTQKSLSLSPGGGGGSGGGGSDVVMTQSPSSVSASVGDRVTITCQASQNIRTYLSWYQQKPGKAPKLLIYAAANLASGVPSRFSGSGSGTDFTLTISDLEPGDAATYYCQSTYLGTDYVGGAFGGGTKLTVLGGGGSGGGGSGGGGSGGGGSEVQLVESGGGLVQPGGSLRLSCTASGFTISSYHMQWVRQAPGKGLEYIGTISSGGNVYYASSARGRFTISRPSSKNTVDLQMNSLRAEDTAVYYCARDSGYSDPMWGQGTLVTVSS
chain 2: B1 chain 2
notes: penta-miniGNC; D1 αCD3***** (humanized framework 4), D2 αCD19, D3 αEGFR (Fab), D4 α4-1BB, D5 αPD-L1
On to B2, for which the Kd was 23.3 nM in assay [1], 0.5 nM in assay [2] and 2.55 nM in assay [4].

B3: SI-68P13 (other)
chain 1: EIVLTQSPSTLSVSPGERATFSCRASQSIGTNIHWYQQKPGKPPRLLIKYASESISGIPDRFSGSGSGTEFTLTISSVQSEDFAVYYCQQNNNWPTTFGPGTKLTVLGGGGSGGGGSGGGGSGGGGSQVQLQQSGPGLVKPSETLSITCTVSGFSLTNYGVHWIRQAPGKGLEWLGVIWSGGNTDYNTPFTSRFTITKDNSKNQVYFKLRSVRADDTAIYYCARALTYYDYEFAYWGQGTLVTVSSGGGGSGGGGSEVQLVESGGGLVQPGGSLRLSCAASGFTISTNAMSWVRQAPGKGLEWIGVITGRDITYYASWAKGRFTISRDNSKNTLYLQMNSLRAEDTAVYYCARDGGSSAITSNNIWGQGTLVTVSSASTKGPSVFPLAPSSKSTSGGTAALGCLVKDYFPEPVTVSWNSGALTSGVHTFPAVLQSSGLYSLSSVVTVPSSSLGTQTYICNVNHKPSNTKVDKRVEPKSCDKTHTCPPCPAPEAAGGPSVFLFPPKPKDTLMISRTPEVTCVVVDVSHEDPEVKFNWYVDGVEVHNAKTKPREEQYNSTYRVVSVLTVLHQDWLNGKEYKCAVSNKALPAPIEKTISKAKGQPREPQVYTLPPSRDELTKNQVSLSCAVKGFYPSDIAVEWESNGQPENNYKTTPPVLDSDGSFFLVSKLTVDKSRWQQGNVFSCSVMHEALHNHYTQKSLSLSPGGGGGSGGGGSDVVMTQSPSSVSASVGDRVTITCQASQNIRTYLSWYQQKPGKAPKLLIYAAANLASGVPSRFSGSGSGTDFTLTISDLEPGDAATYYCQSTYLGTDYVGGAFGGGTKLTVLGGGGSGGGGSGGGGSGGGGSEVQLVESGGGLVQPGGSLRLSCTASGFTISSYHMQWVRQAPGKGLEYIGTISSGGNVYYASSARGRFTISRPSSKNTVDLQMNSLRAEDTAVYYCARDSGYSDPMWGQGTLVTVSS
chain 2: ENVLTQSPASLSASPGERVTITCSASSSVSYMHWYQQKPGQAPKLWIYDTSKLASGVPSRFSGSGSGNDHTLTISSMEPEDFATYYCFQGSVYPFTFGQGTKVTVLGGGGSGGGGSGGGGSGGGGSQVTLKESGPGLVQPGQTLSLTCAFSGFSLSTSGMGVGWIRQPPGKGLEWLAHIWWDDDKRYNPALKSRLTISKDTSKNQVYLQMNSLDAEDTAVYYCARMELWSYYFDYWGQGTLVTVSSGGGGSGGGGSDVVMTQSPSTLSASVGDRVTINCQASESISSWLAWYQQKPGKAPKLLIYEASKLASGVPSRFSGSGSGTEFTLTISSLQPDDFATYYCQGYFYFISRTYVNSFGGGTKVEIKRTVAAPSVFIFPPSDEQLKSGTASVVCLLNNFYPREAKVQWKVDNALQSGNSQESVTEQDSKDSTYSLSSTLTLSKADYEKHKVYACEVTHQGLSSPVTKSFNRGECGGDKTHTCPPCPAPEAAGGPSVFLFPPKPKDTLMISRTPEVTCVVVDVSHEDPEVKFNWYVDGVEVHNAKTKPREEQYNSTYRVVSVLTVLHQDWLNGKEYKCAVSNKALPAPIEKTISKAKGQPREPQVYTLPPSRDELTKNQVSLWCLVKGFYPSDIAVEWESNGQPENNYKTTPPVLDSDGSFFLYSKLTVDKSRWQQGNVFSCSVMHEALHNRFTQKSLSLSPGGGGGSGGGGSDIQMTQSPSTLSASVGDRVTITCQASQSISSHLNWYQQKPGKAPKLLIYKASTLASGVPSRFSGSGSGTEFTLTISSLQPDDFATYYCQQGYSWGNVDNVFGGGTKVTVLGGGGSGGGGSGGGGSGGGGSEVQLLESGGGLVQPGGSLSLSCAASGFSFSSGYDMCWVRQAPGKGLEWIACIAAGSAGITYDANWAKGRFTISRDNSKNTLYLQMNSLRAEDTAVYYCARSAFSFDYAMDLWGQGTLVTVSS
notes: penta-miniGNC; D1 αEGFR, D2 αCD19, D3 αCD3 (Fab), D4 α4-1BB, D5 αPD-L1
On to B3, for which the Kd in assay [1] came to 14.8 nM; in assay [2] it was 1.04 nM; in assay [4], 4.33 nM; in assay [3], 25.9 nM.
